Data from patent publication US20160297852A1 (FORSCHUNGSZENTRUM JUELICH, published 2016).
Each block holds one binder with its values, some of them ahead of it. Where no end group is shown, it is not given here. [ ]: non-standard residue; d: D form.

Target: A beta oligomers of the QIAD test (A beta aggregated under controlled conditions) (UniProt P05067 672-713, limits assumed)
Assay: cell-based or functional assay

Chain of A beta oligomers of the QIAD test (A beta aggregated under controlled conditions) (P05067 672-713 limits assumed): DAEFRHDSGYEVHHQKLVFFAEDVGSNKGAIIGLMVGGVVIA

QIAD: reduction of oligomers in %: 100%
B1: RD2D3 amidated (peptide)
peptide: [dP][dT][dL][dH][dT][dH][dN][dR][dR][dR][dR][dR][dR][dP][dR][dT][dR][dL][dH][dT][dH][dR][dN][dR]-NH2
modifications: N-terminus assumed
SMILES: CC(C)C[C@@H](NC(=O)[C@@H](CCCNC(=N)N)NC(=O)[C@H](NC(=O)[C@@H](CCCNC(=N)N)NC(=O)[C@H]1CCCN1C(=O)[C@@H](CCCNC(=N)N)NC(=O)[C@@H](CCCNC(=N)N)NC(=O)[C@@H](CCCNC(=N)N)NC(=O)[C@@H](CCCNC(=N)N)NC(=O)[C@@H](CCCNC(=N)N)NC(=O)[C@@H](CCCNC(=N)N)NC(=O)[C@@H](CC(N)=O)NC(=O)[C@@H](Cc1c[nH]cn1)NC(=O)[C@H](NC(=O)[C@@H](Cc1c[nH]cn1)NC(=O)[C@@H](CC(C)C)NC(=O)[C@H](NC(=O)[C@H]1CCCN1)[C@H](C)O)[C@H](C)O)[C@H](C)O)C(=O)N[C@H](Cc1c[nH]cn1)C(=O)N[C@@H](C(=O)N[C@H](Cc1c[nH]cn1)C(=O)N[C@H](CCCNC(=N)N)C(=O)N[C@H](CC(N)=O)C(=O)N[C@H](CCCNC(=N)N)C(N)=O)[C@H](C)O

QIAD: reduction of oligomers in %: 97%
B2: RD2RD2 amidated (peptide)
peptide: [dP][dT][dL][dH][dT][dH][dN][dR][dR][dR][dR][dR][dP][dT][dL][dH][dT][dH][dN][dR][dR][dR][dR][dR]-NH2
modifications: N-terminus assumed
SMILES: CC(C)C[C@@H](NC(=O)[C@H](NC(=O)[C@H]1CCCN1C(=O)[C@@H](CCCNC(=N)N)NC(=O)[C@@H](CCCNC(=N)N)NC(=O)[C@@H](CCCNC(=N)N)NC(=O)[C@@H](CCCNC(=N)N)NC(=O)[C@@H](CCCNC(=N)N)NC(=O)[C@@H](CC(N)=O)NC(=O)[C@@H](Cc1c[nH]cn1)NC(=O)[C@H](NC(=O)[C@@H](Cc1c[nH]cn1)NC(=O)[C@@H](CC(C)C)NC(=O)[C@H](NC(=O)[C@H]1CCCN1)[C@H](C)O)[C@H](C)O)[C@H](C)O)C(=O)N[C@H](Cc1c[nH]cn1)C(=O)N[C@@H](C(=O)N[C@H](Cc1c[nH]cn1)C(=O)N[C@H](CC(N)=O)C(=O)N[C@H](CCCNC(=N)N)C(=O)N[C@H](CCCNC(=N)N)C(=O)N[C@H](CCCNC(=N)N)C(=O)N[C@H](CCCNC(=N)N)C(=O)N[C@H](CCCNC(=N)N)C(N)=O)[C@H](C)O

QIAD: reduction of oligomers in %: 56%
B3: D3 amidated (peptide)
peptide: [dR][dP][dR][dT][dR][dL][dH][dT][dH][dR][dN][dR]-NH2
modifications: N-terminus assumed
SMILES: CC(C)C[C@@H](NC(=O)[C@@H](CCCNC(=N)N)NC(=O)[C@H](NC(=O)[C@@H](CCCNC(=N)N)NC(=O)[C@H]1CCCN1C(=O)[C@H](N)CCCNC(=N)N)[C@H](C)O)C(=O)N[C@H](Cc1c[nH]cn1)C(=O)N[C@@H](C(=O)N[C@H](Cc1c[nH]cn1)C(=O)N[C@H](CCCNC(=N)N)C(=O)N[C@H](CC(N)=O)C(=O)N[C@H](CCCNC(=N)N)C(N)=O)[C@H](C)O

QIAD: reduction of oligomers in %: 98%
B4: D3D3 amidated (peptide)
peptide: [dR][dP][dR][dT][dR][dL][dH][dT][dH][dR][dN][dR][dR][dP][dR][dT][dR][dL][dH][dT][dH][dR][dN][dR]-NH2
modifications: N-terminus assumed
SMILES: CC(C)C[C@@H](NC(=O)[C@@H](CCCNC(=N)N)NC(=O)[C@H](NC(=O)[C@@H](CCCNC(=N)N)NC(=O)[C@H]1CCCN1C(=O)[C@H](N)CCCNC(=N)N)[C@H](C)O)C(=O)N[C@H](Cc1c[nH]cn1)C(=O)N[C@@H](C(=O)N[C@H](Cc1c[nH]cn1)C(=O)N[C@H](CCCNC(=N)N)C(=O)N[C@H](CC(N)=O)C(=O)N[C@H](CCCNC(=N)N)C(=O)N[C@H](CCCNC(=N)N)C(=O)N1CCC[C@@H]1C(=O)N[C@H](CCCNC(=N)N)C(=O)N[C@@H](C(=O)N[C@H](CCCNC(=N)N)C(=O)N[C@H](CC(C)C)C(=O)N[C@H](Cc1c[nH]cn1)C(=O)N[C@@H](C(=O)N[C@H](Cc1c[nH]cn1)C(=O)N[C@H](CCCNC(=N)N)C(=O)N[C@H](CC(N)=O)C(=O)N[C@H](CCCNC(=N)N)C(N)=O)[C@H](C)O)[C@H](C)O)[C@H](C)O

QIAD: reduction of oligomers in %: 88%
B5: D3RD2 amidated (peptide)
peptide: [dR][dP][dR][dT][dR][dL][dH][dT][dH][dR][dN][dR][dP][dT][dL][dH][dT][dH][dN][dR][dR][dR][dR][dR]-NH2
modifications: N-terminus assumed
SMILES: CC(C)C[C@@H](NC(=O)[C@@H](CCCNC(=N)N)NC(=O)[C@H](NC(=O)[C@@H](CCCNC(=N)N)NC(=O)[C@H]1CCCN1C(=O)[C@H](N)CCCNC(=N)N)[C@H](C)O)C(=O)N[C@H](Cc1c[nH]cn1)C(=O)N[C@@H](C(=O)N[C@H](Cc1c[nH]cn1)C(=O)N[C@H](CCCNC(=N)N)C(=O)N[C@H](CC(N)=O)C(=O)N[C@H](CCCNC(=N)N)C(=O)N1CCC[C@@H]1C(=O)N[C@@H](C(=O)N[C@H](CC(C)C)C(=O)N[C@H](Cc1c[nH]cn1)C(=O)N[C@@H](C(=O)N[C@H](Cc1c[nH]cn1)C(=O)N[C@H](CC(N)=O)C(=O)N[C@H](CCCNC(=N)N)C(=O)N[C@H](CCCNC(=N)N)C(=O)N[C@H](CCCNC(=N)N)C(=O)N[C@H](CCCNC(=N)N)C(=O)N[C@H](CCCNC(=N)N)C(N)=O)[C@H](C)O)[C@H](C)O)[C@H](C)O

QIAD: reduction of oligomers in %: 78%
B6: RD2 amidated (peptide)
peptide: [dP][dT][dL][dH][dT][dH][dN][dR][dR][dR][dR][dR]-NH2
modifications: N-terminus assumed
SMILES: CC(C)C[C@@H](NC(=O)[C@H](NC(=O)[C@H]1CCCN1)[C@H](C)O)C(=O)N[C@H](Cc1c[nH]cn1)C(=O)N[C@@H](C(=O)N[C@H](Cc1c[nH]cn1)C(=O)N[C@H](CC(N)=O)C(=O)N[C@H](CCCNC(=N)N)C(=O)N[C@H](CCCNC(=N)N)C(=O)N[C@H](CCCNC(=N)N)C(=O)N[C@H](CCCNC(=N)N)C(=O)N[C@H](CCCNC(=N)N)C(N)=O)[C@H](C)O
